For seven molecules, IC50 and Ki results are on record in US20120207676.

The term IC50 denotes the concentration needed to halve the response being measured. Read a high IC50 as weaker potency. What is called Ki is a dissociation constant, usually derived from enzyme kinetics or from competition with a known ligand. A higher Ki goes with lower affinity.

Assay [1] deals with T1, Neurotensin receptor NTS1 (HT29 cells/membranes) (human), P30989. Kind of assay: competition, HT29 cells. The settings on record: modification not given.
Assay [2] deals with T1, Neurotensin receptor NTS1 (HT29 …). Kind of assay: competition, HT29 membranes. To be noted: modification not given.

T1 sequence (P30989 whole entry): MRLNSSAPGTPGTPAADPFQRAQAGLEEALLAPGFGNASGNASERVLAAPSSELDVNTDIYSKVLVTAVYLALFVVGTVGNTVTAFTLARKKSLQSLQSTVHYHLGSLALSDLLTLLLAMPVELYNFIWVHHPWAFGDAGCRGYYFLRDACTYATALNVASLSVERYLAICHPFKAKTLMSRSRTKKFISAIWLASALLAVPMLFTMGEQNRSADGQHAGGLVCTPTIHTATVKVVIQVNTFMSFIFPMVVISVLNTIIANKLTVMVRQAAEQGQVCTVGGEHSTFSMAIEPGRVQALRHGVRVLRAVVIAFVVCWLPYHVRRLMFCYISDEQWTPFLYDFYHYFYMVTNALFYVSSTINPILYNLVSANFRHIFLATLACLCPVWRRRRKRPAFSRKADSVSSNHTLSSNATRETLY

In assay [1], KPRRPYIL [DOTA(Ga)-LB119] yielded an IC50 of 7.5 nM.
In the case of KPRRPYIL [DTPA(In)-NT-20.2], the Ki in assay [2] came out at 1.55 nM. This molecule came in with an IC50 in assay [1] of 41.2 nM.
In assay [2], KPRRPYIL [DTPA(In)-NT-20.1] displayed a Ki of 0.66 nM. The concentration for half-maximal inhibition (IC50) in assay [1] was 6.73 nM.
KPRRPYIL [DOTA(In)-LB119] came in with an IC50 in assay [1] of 14.1 nM.
In turn, KPRRPYIL [NT-20.2] came in with a Ki in assay [2] of 0.26 nM. This molecule returned an IC50 in assay [1] of 2.46 nM.
KPRRPYIL [NT-20.1]: in assay [2], the Ki was found to be 0.072 nM. The molecule further came in with a half-inhibitory concentration (IC50) in assay [1] of 0.82 nM.
On to KPRRPYIL [DOTA(Y)-LB119], for which, in assay [1], the IC50 turned out to be 9.9 nM.
